A value given as a limit tells only on which side of the number the result lay.

Test [1] has as its target preF (DS-Cav1) with a C-terminal 8x His-tag and AviTag (respiratory syncytial virus (strain not stated)) (UniProt P03420). Briefly: SPR.
For test [2], the target named is preF-stabilized variant of RSV F (PR-DM), tags removed, deglycosylated (respiratory syncytial virus (strain not stated)) (UniProt P03420). Description: crystal structure.

Turning to ADI-19425 Fab, light chain Y31A variant, the fold reduction in affinity against ADI-19425 in test [1] is greater than 200 fold.
Substance ADI-19425 Fab, light chain Y91A variant displayed a fold reduction in affinity against ADI-19425 in test [1] greater than 80 fold.
AM22 Fab gave a stoichiometry N (Fab per preF trimer) in test [2] of 3.

The values above are taken from article PMC6005179.
